Reference: IntAct's records for PubMed 21471201

B1: NAD-dependent protein deacetylase sirtuin-1 (Homo sapiens), Q96EB6 (parent)
chain: MADEAALALQPGGSPSAAGADREAASSPAGEPLRKRPRRDGPGLERSPGEPGGAAPEREVPAAARGCPGAAAAALWREAEAEAAAAGGEQEAQATAAAGEGDNGPGLQGPSREPPLADNLYDEDDDDEGEEEEEAAAAAIGYRDNLLFGDEIITNGFHSCESDEEDRASHASSSDWTPRPRIGPYTFVQQHLMIGTDPRTILKDLLPETIPPPELDDMTLWQIVINILSEPPKRKKRKDINTIEDAVKLLQECKKIIVLTGAGVSVSCGIPDFRSRDGIYARLAVDFPDLPDPQAMFDIEYFRKDPRPFFKFAKEIYPGQFQPSLCHKFIALSDKEGKLLRNYTQNIDTLEQVAGIQRIIQCHGSFATASCLICKYKVDCEAVRGDIFNQVVPRCPRCPADEPLAIMKPEIVFFGENLPEQFHRAMKYDKDEVDLLIVIGSSLKVRPVALIPSSIPHEVPQILINREPLPHLHFDVELLGDCDVIINELCHRLGGEYAKLCCNPVKLSEITEKPPRTQKELAYLSELPPTPLHVSEDSSSPERTSPPDSSVIVTLLDQAAKSNDDLDVSESKGCMEEKPQEVQTSRNVESIAEQMENPDLKNVGSSTGEKNERTSVAGTVRKCWPNRVAKEQISRRLDGNQYLFLPPNRYIFHGAEVYSDSEDDVLSSSSCGSNSDSGTCQSPSLEEPMEDESEIEEFYNGLEDEPDVPERAGGAGFGTDGDDQEAINEAISVKQEVTDMNYPSNKS

Variants of: B1
Conditions: with rptor_human RPTOR

Row | Variant | effect of a mutation on the interaction
1 | F474A | decreasing interaction
